According to patent US20190338048A1:
Where two headings read alike, the source gives them in different places. Blank lines part the entries; values can stand above or below the substance they belong to.

Columns and labels:
[1] = target: CAT-2200 lambda light chain, wild type (L1), N-terminal FLAG tag; assay: LCCA, SPR of light chain tags
[2] = target: CAT-2200 heavy chain Fab construct (H1) L143E_K145T_Q179E; assay: LCCA, SPR tag read-out
[3] = target: CAT-2200 heavy chain Fab construct (H1) L143E_K145T; assay: LCCA, SPR tag read-out
[4] = target: CAT-2200 heavy chain Fab construct (H1) S186R; assay: LCCA, SPR tag read-out
[5] = target: CAT-2200 heavy chain Fab construct (H1) Q179K; assay: LCCA, SPR tag read-out
[6] = target: CAT-2200 heavy chain Fab construct (H1) D146G_Q179K; assay: LCCA, SPR tag read-out
[7] = target: CAT-2200 heavy chain Fab construct (H1) Q179K; assay: LCCA, SPR tag read-out; remark: listed apart in the source
[8] = target: CAT-2200 heavy chain Fab construct (H1) S186R; assay: LCCA, SPR tag read-out; remark: listed apart in the source
[9] = target: CAT-2200 heavy chain Fab construct (H1) L124E; assay: LCCA, SPR tag read-out
[10] = target: Pertuzumab kappa light chain S121K_S131K; assay: LCCA
[11] = target: Pertuzumab kappa light chain S121K_T129K_S131K; assay: LCCA
[12] = target: Pertuzumab kappa light chain S131K_L135A; assay: LCCA
[13] = target: Pertuzumab kappa light chain S131K_S176K; assay: LCCA
[14] = target: Pertuzumab kappa light chain S131K_S176K; assay: LCCA; remark: listed apart in the source
[15] = target: Pertuzumab kappa light chain S131K_S176K; assay: LCCA; remark: listed apart in the source
[16] = target: Pertuzumab kappa light chain S131K_S176K; assay: LCCA; remark: listed apart in the source
[17] = target: Pertuzumab kappa light chain S131K_L135W_S176K; assay: LCCA
[18] = target: Pertuzumab kappa light chain S121K_S131K_S176K; assay: LCCA
[19] = target: Pertuzumab kappa light chain S121K_S131K_S176K; assay: LCCA; remark: listed apart in the source
[20] = target: Pertuzumab kappa light chain V133G_S176R_T178A (L2), HA-tagged; assay: LCCA, SPR of light-chain tags
[21] = target: Pertuzumab kappa light chain V133A_S176K_T178A (L2), HA-tagged; assay: LCCA, SPR of light-chain tags
[22] = target: Pertuzumab kappa light chain V133G_S176R_T178A (L2), HA-tagged; assay: LCCA, SPR of light-chain tags; remark: listed apart in the source
[23] = target: Pertuzumab kappa light chain V133A_S176K_T178A (L2), HA-tagged; assay: LCCA, SPR of light-chain tags; remark: listed apart in the source
[24] = target: CAT-2200 lambda light chain V133L_S176D_Y178E (L1), FLAG-tagged; assay: LCCA, SPR of light-chain tags
[25] = target: CAT-2200 lambda light chain S176E_Y178E (L1), FLAG-tagged; assay: LCCA, SPR of light-chain tags
[26] = target: CAT-2200 lambda light chain V133L_S176D_Y178E (L1), FLAG-tagged; assay: LCCA, SPR of light-chain tags; remark: listed apart in the source
[27] = target: CAT-2200 lambda light chain S176E_Y178E (L1), FLAG-tagged; assay: LCCA, SPR of light-chain tags; remark: listed apart in the source
[28] = target: CAT-2200 lambda light chain Y178K; assay: LCCA
[29] = target: Pertuzumab kappa light chain V133G_S176D_T180E; assay: LCCA
[30] = target: Pertuzumab kappa light chain V133G_L135W_S176D_T180E; assay: LCCA
[31] = target: Pertuzumab kappa light chain V133G_L135W_S176D; assay: LCCA
[32] = target: Pertuzumab kappa light chain V133G_S176D; assay: LCCA
[33] = target: Pertuzumab kappa light chain S121K_V133G_S176D; assay: LCCA
[34] = target: CAT-2200 lambda light chain S122D_Y178K; assay: LCCA
[35] = target: Pertuzumab kappa light chain Q124E_V133G_S176D; assay: LCCA
[36] = target: Pertuzumab kappa light chain Q124E_V133G_S176D_T178E_T180E; assay: LCCA
[37] = target: Pertuzumab kappa light chain Q124E_V133G_S176D_T180E; assay: LCCA
[38] = target: Pertuzumab kappa light chain Q124E_V133G_S176D; assay: LCCA; remark: listed apart in the source
[39] = target: Pertuzumab kappa light chain Q124E_V133G_S176D_T180E; assay: LCCA; remark: listed apart in the source
[40] = target: Pertuzumab kappa light chain Q124K_V133A_T178R; assay: LCCA
[41] = target: CAT-2200 lambda light chain K129T_V133W_S180E; assay: LCCA
[42] = target: Pertuzumab kappa light chain Q124R_Q160K_T178R; assay: LCCA
[43] = target: Pertuzumab kappa light chain Q124R_L135W_T178R; assay: LCCA
[44] = target: Pertuzumab kappa light chain Q124R_Q160K_T178R; assay: LCCA; remark: listed apart in the source
[45] = target: Pertuzumab kappa light chain Q124R_L135W_Q160K_T178R; assay: LCCA
[46] = target: Pertuzumab kappa light chain Q124K_S176A_T178R; assay: LCCA
[47] = target: Pertuzumab kappa light chain Q124E_V133D_S176E_T180E; assay: LCCA
[48] = target: Pertuzumab kappa light chain Q124E_V133D_S176E_T178E_T180E; assay: LCCA
[49] = target: CAT-2200 lambda light chain Y178K; assay: LCCA; remark: listed apart in the source
[50] = target: Pertuzumab kappa light chain Q124E_S176E_T178E_T180E; assay: LCCA
[51] = target: Pertuzumab kappa light chain Q124E_S176E_T178D_T180E; assay: LCCA
[52] = target: Pertuzumab kappa light chain Q124E_S176E_T180E; assay: LCCA
[53] = target: Pertuzumab kappa light chain V133D (L2), N-terminal HA tag; assay: LCCA, SPR of light chain tags
[54] = target: Pertuzumab kappa light chain V133D (L2), N-terminal HA tag; assay: LCCA, SPR of light chain tags; remark: listed apart in the source
[55] = target: CAT-2200 lambda light chain S176K_Y178K (L1), N-terminal FLAG tag; assay: LCCA, SPR of light chain tags
[56] = target: Pertuzumab kappa light chain Q124E_Q160E_S176D_T178D_T180E; assay: LCCA
[57] = target: Pertuzumab kappa light chain Q124E_Q160E_S176D_T178D; assay: LCCA
[58] = target: Pertuzumab kappa light chain Q124E_Q160E_S176A_T178A_T180E (L2), N-terminal HA tag; assay: LCCA, SPR of light chain tags

Substance: CAT-2200 Fab heavy chain, wild type (H1), ABD2-His6 tagged
H1L1:H1L2 normalized median scalar value ln(r1/f1) [1]: 0.48

Substance: CAT-2200 lambda light chain construct (L1) E124K_Y178R, FLAG-tagged
H1L1:H1L2 normalized median scalar value ln(r1/f1) [2]: -0.13

Substance: CAT-2200 lambda light chain construct (L1) E124R, FLAG-tagged
H1L1:H1L2 normalized median scalar value ln(r1/f1) [3]: -0.11

Substance: Pertuzumab Fab heavy chain K145T_Q179E_K228D
H2L2:H2L1 median scalar value [10]: -0.1 ln
H2L2:H2L1 median scalar value [11]: 0.07 ln
H2L2:H2L1 normalized median ratio [11]: 51%

Substance: Pertuzumab Fab heavy chain K145T_Q179E_S188F_V190F
H2L2:H2L1 median scalar value [12]: -0.45 ln

Substance: Pertuzumab Fab heavy chain K145T_S186E_K228D
H2L2:H2L1 median scalar value [18]: 0.33 ln
H2L2:H2L1 median scalar value [19]: 1.21 ln

Substance: Pertuzumab Fab heavy chain L124R_K228D
H2L2:H2L1 median scalar value [33]: 1.97 ln
H2L2:H2L1 normalized median ratio [33]: 67%
H2L2:H2L1 normalized median ratio [34]: 33%

Substance: Pertuzumab Fab heavy chain L124W_L143E_K145T
H2L2:H2L1 median scalar value [40]: 0.73 ln
H2L2:H2L1 normalized median ratio [40]: 67%
H2L2:H2L1 normalized median ratio [41]: 33%

Substance: Pertuzumab Fab heavy chain L143E_K145T
H2L2:H2L1 median scalar value [42]: 3.09 ln
H2L2:H2L1 median scalar value [43]: -0.32 ln
H2L2:H2L1 median scalar value [44]: 0.86 ln
H2L2:H2L1 median scalar value [45]: -0.26 ln

Substance: Pertuzumab Fab heavy chain Q179K_S188K
H2L2:H2L1 normalized median ratio [49]: 8%
H2L2:H2L1 median scalar value [50]: 2.48 ln
H2L2:H2L1 normalized median ratio [50]: 92%
H2L2:H2L1 normalized median ratio [28]: 12%
H2L2:H2L1 median scalar value [51]: 2.01 ln
H2L2:H2L1 normalized median ratio [51]: 88%
H2L2:H2L1 median scalar value [52]: 2.76 ln

Substance: Pertuzumab Fab heavy chain S186R_S188K
H2L2:H2L1 median scalar value [56]: 0 ln
H2L2:H2L1 normalized median ratio [28]: 31%
H2L2:H2L1 median scalar value [57]: 0.8 ln
H2L2:H2L1 normalized median ratio [57]: 69%

Now from value to substance:

H1L1:H1L2 normalized median scalar value ln(r1/f1) [4]: 2.24
H1L1:H1L2 normalized median scalar value ln(r1/f1) [5]: 2.32
H1L1:H1L2 normalized median scalar value ln(r1/f1) [6]: 2.16
H1L1:H1L2 normalized median scalar value ln(r1/f1) [7]: 0.94
H1L1:H1L2 normalized median scalar value ln(r1/f1) [8]: 2.07
Substance: CAT-2200 lambda light chain construct (L1) S180E, FLAG-tagged

H1L1:H1L2 normalized median scalar value ln(r1/f1) [9]: 0.08
Substance: CAT-2200 lambda light chain construct (L1) V133G_S176R, FLAG-tagged

H2L2:H2L1 median scalar value [13]: 0.53 ln
H2L2:H2L1 median scalar value [14]: 1.58 ln
H2L2:H2L1 median scalar value [15]: 2.25 ln
H2L2:H2L1 median scalar value [16]: 0.9 ln
H2L2:H2L1 median scalar value [17]: -0.33 ln
Substance: Pertuzumab Fab heavy chain K145T_S186E

H2L2:H2L1 normalized median ratio, H2L2 share [20]: 86%
H2L2:H2L1 normalized median scalar value ln(r1/f1) [20]: 1.84
H2L2:H2L1 normalized median ratio, H2L2 share [21]: 85%
H2L2:H2L1 normalized median scalar value ln(r1/f1) [21]: 1.71
H2L2:H2L1 normalized median ratio, H2L2 share [22]: 54%
H2L2:H2L1 normalized median scalar value ln(r1/f1) [22]: 0.15
H2L2:H2L1 normalized median ratio, H2L2 share [23]: 54%
H2L2:H2L1 normalized median scalar value ln(r1/f1) [23]: 0.18
H2L2:H2L1 normalized median ratio (H2L1 share) [24]: 15%
H2L2:H2L1 normalized median ratio (H2L1 share) [25]: 46%
H2L2:H2L1 normalized median ratio (H2L1 share) [26]: 14%
H2L2:H2L1 normalized median ratio (H2L1 share) [27]: 46%
Substance: Pertuzumab Fab heavy chain L124E_S188W (H2)

H2L2:H2L1 normalized median ratio [28]: 9%
H2L2:H2L1 median scalar value [29]: 2.34 ln
H2L2:H2L1 normalized median ratio [29]: 91%
H2L2:H2L1 median scalar value [30]: 0.29 ln
H2L2:H2L1 median scalar value [31]: 0.55 ln
H2L2:H2L1 median scalar value [32]: 2.2 ln
Substance: Pertuzumab Fab heavy chain L124R

H2L2:H2L1 normalized median ratio [28]: 49%
H2L2:H2L1 median scalar value [35]: 0.45 ln
H2L2:H2L1 median scalar value [36]: 0.07 ln
H2L2:H2L1 normalized median ratio [36]: 51%
H2L2:H2L1 median scalar value [37]: 0.35 ln
H2L2:H2L1 median scalar value [38]: 0.55 ln
H2L2:H2L1 median scalar value [39]: 0.25 ln
Substance: Pertuzumab Fab heavy chain L124R_L143K

H2L2:H2L1 median scalar value [46]: 0.43 ln
Substance: Pertuzumab Fab heavy chain L143E_K145T_S188W

H2L2:H2L1 normalized median ratio [28]: 27%
H2L2:H2L1 median scalar value [47]: 1.01 ln
H2L2:H2L1 normalized median ratio [47]: 73%
H2L2:H2L1 median scalar value [48]: 0.61 ln
Substance: Pertuzumab Fab heavy chain L143K_S188K

H2L2:H2L1 normalized median ratio [53]: 70%
H2L2:H2L1 normalized median scalar value ln(r1/f1) [53]: 0.85
H2L2:H2L1 normalized median ratio [54]: 62%
H2L2:H2L1 normalized median scalar value ln(r1/f1) [54]: 0.49
H2L2:H2L1 normalized median ratio [55]: 38%
Substance: Pertuzumab Fab heavy chain S186K_S188T (H2), ABD2-His6 tagged

H2L2:H2L1 normalized median scalar value ln(r1/f1) [58]: 2.64
Substance: Pertuzumab Fab heavy chain S186R_S188W (H2), ABD2-His6 tagged
